Consider seven molecules from US20260158153A1, “BCMA MONOCLONAL ANTIBODY AND THE ANTIBODY-DRUG CONJUGATE” (priority 2021, published 2026).

As a reminder, the IC50 is the concentration at which inhibition is half-maximal. Low values mean greater potency in that assay, high ones weaker potency in that assay. The EC50 (read off the curve) is the concentration needed to bring the measured effect to its halfway point.

The subject of one series is JJN-3. The series can be described thus: MTT in vitro cytotoxicity assay of BCMA antibody conjugates, JJN-3. It is filed as cell-based. The note with it: Homo sapiens, 6000 cells, 96 h incubation, conjugates prepared via homogeneous conjugation process. The protocol: (§1) The cell lines used in the cytotoxicity assays were (1). NCI-H929, JJN3, U266, and MM1S were obtained from ATCC, and 8226-2A1cell is Myeloma antigen express cells through culturing and clone-picking of ATCC's RPMI-8226. The cells were grown according to the provider manuals. To run the assay, the cells (180 μl, 6000 cells) were added to each well in a 96-well plate and incubated for 24 hours at 37° C. with 5% CO2. Next, the cells were treated with test compounds (20 μl) at various concentrations in appropriate cell culture medium (total volume, 0.2 mL). The control wells contain cells and the medium but lack the test compounds. […] MTT (5 mg/mL) was then added to the wells (20 μl) and the plates were incubated for 1.5 hr at 37° C. The medium was carefully removed and DMSO (180 μl) was added afterward. After it was shaken for 15 min, the absorbance was measured at 490 nm and 570 nm with a reference filter of 620 nm. The inhibition % was calculated according to the following equation: inhibition %=[1−(assay-blank)/(control-blank)]×100.

In another series the test system is NCI-H929. The series can be described thus: MTT in vitro cytotoxicity assay of BCMA antibody conjugates, NCI-H929. It is filed as cell-based. Particulars: Homo sapiens, 6000 cells, 96 h incubation, conjugates prepared via homogeneous conjugation process. The protocol: as §1
The next series concerns MM1S. The series can be described thus: MTT in vitro cytotoxicity assay of BCMA antibody conjugates, MM1S. The series is classed as cell-based. Particulars: Homo sapiens, MM1.S, 6000 cells, 96 h incubation, conjugates prepared via homogeneous conjugation process. The procedure:
as §1

A further series concerns JJN-3 cell xenograft. The series can be described thus: Antitumor activity in vivo, JJN-3 cell xenograft mouse model of multiple myeloma. Particulars: FIG. 10; single dose 5 mg/Kg.
Series [1] deals with multiple myeloma (MM) patients. The note with it: cited from earlier work.
Series [2] has as its target T1, Human B cell maturation antigen (BCMA, CD269) (human, UniProt Q02223 1-54).
T1 construct: Flow cytometry used whole BCMA on NCI-H929 and RPMI-8226-BCMA cells; also called hBCMA
T1 sequence: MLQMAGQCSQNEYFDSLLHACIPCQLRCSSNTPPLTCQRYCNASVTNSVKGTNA
The series can be described thus: flow cytometry on NCI-H929 cells with endogenous BCMA, PE anti-human IgG Fc secondary, MFI against concentration.

The target in series [3] is T1, Human B cell maturation antigen (BCMA, …). The series can be described thus: ELISA, plate coated with 1 ug/ml soluble BCMA (recombinant TrxA-BCMA), OD450 against IgG concentration. Background: ELISA stands for enzyme-linked immunosorbent assay.
The target is the same in series [4]. The series can be described thus: ELISA on recombinant TrxA-BCMA, OD450 against IgG concentration.

For the molecule `CC(=O)O[C@H]1C(=O)[C@@]2(C)[C@H]([C@H](OC(=O)c3ccccc3)[C@]3(O)C[C@H](OC(=O)[C@H](O)[C@@H](NC(=O)c4ccccc4)c4ccccc4)C(C)=C1C3(C)C)[C@]1(OC(C)=O)CO[C@@H]1C[C@@H]2O` [Paclitaxel], the IC50 in the series with JJN-3 was 4.31 nM; with NCI-H929, 2.89 nM; with MM1S, 3.28 nM. The “orders of the antitumor activity” value in the series with JJN-3 cell xenograft is listed as “Paclitaxel<C-385”.

Consider Belantamabmafodotin, for which the overall response rate in series [1] (for MM) is on record as 32%. Further, the “patients reported ocular toxicities requiring dose adjustments, dose delays and treatment discontinuations” value in series [1] (patients with this ADC) is “over 60%”.

B1: Humanized antibody hu5D2 (antibody, human IgG1, kappa, V domains shown)
VH: QVQLVQSGAEVVKPGASVKMSCKASGYTFTSFLIHWVKQAPGQGLEWIGFIIPGNGGTKYNQKFQGKATLTSDTSSSTAYMELSSLRSEDSAVYYCARYDGSFEGYFDVWGQGTTLTVSS
VL: DVVMTQSPLSLPVSLRQPASISCRSSQSLVHSDGNTYLHWYLQKPGQSPRLLIYKVSNRDSGVPDRFSGSGSGTDFTLKISRVEAEDLGVYFCSQSTHWPWTFGQGTKLEIKR
modifications: N-linked glycan at Asn300
notes: also called Hu5D2 antibody; BCMA antibody
Turning to B1, the results for the “EC50 (read off the curve)” value in series [2] and in series [3] were about 0.05 µg/mL and about 0.02 µg/mL, respectively.

B2: c5D2 (antibody, human IgG1, kappa, V domains shown)
VH: EVQLQQSGPELVKPGASVKMSCKASGYTFTSFLIHWVKQKPGQGLEWIGFIIPYNDGTKYNEKFKGKATLTSDKSSSTAYMELSSLTSEDSAVYYCARYDGSFEGYFDVWGAGTTLTVSS
VL: DVLMTQTPLSLPVSLRDQASISCRSSQSLVHSDGNTYLHWYLQKPGQSPKLLIYKVSNRFSGVPDRFSGSGSGTDFTLKISRVEAEDLGVYFCSQSTHVPWTFGGGTKLEIKT
notes: VH/VL of BCMA-A2-6H4-5D2 fused to human IgG1 and kappa constant domains; also called chimeric antibody c5D2
With B2, the “EC50 (read off the curve)” value in series [3] was about 0.05 µg/mL.

B3: hu5D2-Tub (antibody, human IgG1, kappa, V domains shown)
VH: QVQLVQSGAEVVKPGASVKMSCKASGYTFTSFLIHWVKQAPGQGLEWIGFIIPGNGGTKYNQKFQGKATLTSDTSSSTAYMELSSLRSEDSAVYYCARYDGSFEGYFDVWGQGTTLTVSS
VL: DVVMTQSPLSLPVSLRQPASISCRSSQSLVHSDGNTYLHWYLQKPGQSPRLLIYKVSNRDSGVPDRFSGSGSGTDFTLKISRVEAEDLGVYFCSQSTHWPWTFGQGTKLEIKR
modifications: conjugated to a tubulysin analog payload; sites and drug/antibody ratio of the lot used in Fig. 3 are not given
notes: Antibody-drug conjugate of hu5D2; also called hu5D2 conjugated ADC; hu5D2-tub196
Regarding B3, the “EC50 (read off the curve)” value in series [2] was about 0.06 µg/mL.

B4: Hybridoma monoclonal antibody BCMA-A2-6H4-5D2 (antibody, V domains shown)
VH: EVQLQQSGPELVKPGASVKMSCKASGYTFTSFLIHWVKQKPGQGLEWIGFIIPYNDGTKYNEKFKGKATLTSDKSSSTAYMELSSLTSEDSAVYYCARYDGSFEGYFDVWGAGTTLTVSS
VL: DVLMTQTPLSLPVSLRDQASISCRSSQSLVHSDGNTYLHWYLQKPGQSPKLLIYKVSNRFSGVPDRFSGSGSGTDFTLKISRVEAEDLGVYFCSQSTHVPWTFGGGTKLEIK
notes: Murine hybridoma antibody from BalB/c mice; also called clone BCMA-A2-6H4-5D2; CCTCC C2022188
As for B4, the “EC50 (read off the curve)” value in series [3] was about 0.01 µg/mL; in series [4], about 0.09 µg/mL.

B5: J6M0 (antibody, V domains shown)
VH: QVQLVQSGAEVKKPGSSVKVSCKASGGTFSNYWMHWVRQAPGQGLEWMGATYRGHSDTYYNQKFKGRVTITADKSTSTAYMELSSLRSEDTAVYYCARGAIYDGYDVLDNWGQGTLVTVSS
VL: DIQMTQSPSSLSASVGDRVTITCSASQDISNYLNWYQQKPGKAPKLLIYYTSNLHSGVPSRFSGSGSGTDFTLTISSLQPEDFATYYCQQYRKLPWTFGQGTKLEIK
Take B5: the “EC50 (read off the curve)” value in series [3] was about 0.06 µg/mL; in series [4] it was about 0.04 µg/mL.
